# Assay results reported in US20100137420A1 (Johns Hopkins, published 2010).
# B1: full-length cystatin C (13.4 kD peak) in human cerebrospinal fluid (other)
# chain: SSPGKPPRLVGGPMDASVEEEGVRRALDFAVGEYNKASNDMYHSRALQVVRARKQIVAGVNYFLDVELGRTTCTKTQPNLDNCPFHDQPHLKRKAFCSFQIYAVPWQGTMTLSKSTCQDA
# notes: also called biomarker J
# B2: C-terminal cleavage product of cystatin C lacking the last 8 amino acids (12.5 kD peak) in human cerebrospinal fluid (other)
# chain: SSPGKPPRLVGGPMDASVEEEGVRRALDFAVGEYNKASNDMYHSRALQVVRARKQIVAGVNYFLDVELGRTTCTKTQPNLDNCPFHDQPHLKRKAFCSFQIYAVPWQGTMTL
# notes: Endogenous fragment in CSF of MS/CIS patients; also called biomarker A
# Target: T1, protein A beads (UniProt P38507 37-477)
# T1 construct: Used alone as a control in the immunodepletion; also called protein A beads alone
# Experiment: CSF incubated with protein A beads alone, SELDI-TOF read-out
# Method: 20 μl of rabbit anti-human cystatin C or rabbit anti-fusin antisera (DakoCytomation, Carpinteria, Calif.) was bound to 10 μl of protein A beads equilibrated in PBS, pH 7.4, by rocking at room temperature for 1 hr. 10 μl of equilibrated protein A beads alone were used as another control. Each sample was washed three times with PBS pH=7.4. […] 30 μl of this CSF was added to each of the above sample and rocked for 1 hr at room temperature. 15 μl of the supernatant was applied to CM-10 arrays and analyzed as described above.
row,Binder,binding result
1,B1,no binding
2,B2,no binding
